Assay: Ratiometric fluorescence glucose titration of fluorescent conjugates
Type: binding
Set-up: key to Shape (fluorescence response to glucose) / Change (fluorescence response to glucose): m, monochromatic; d, dichromatic (i.e. spectral shape change); 0, no change
From the text: Semi-synthetic FRSs can be engineered by site-specifically attaching thiol-reactive, environmentally sensitive fluorophores that respond to ligand-mediated conformational changes. Identification of FRS candidates that can be used for sensing applications comprises three steps: • 1. Cysteine scan. Mutant glucose-binding proteins containing single cysteines are constructed for site-specific attachment of thiol-reactive fluorophores. […] Candidate positions fall into three classes: endosteric, replacing a residue that contacts the ligand directly; peristeric, located at the rim of the binding site; allosteric (Marvin et al., 1997, Proc Natl Acad Sci USA, 94, 4366-71; Marvin, 1998, J Am Chem Soc, 120, 7-11), located outside the binding site at sites that undergo local structural changes in concert with the hinge-bending motion. • 2. Fluorophore screening. Thiol-reactive, environmentally sensitive fluorophores are attached to each cysteine mutant prepared in step 1. • 3. Evaluation of the glucose-mediated change of all the fluorescent conjugates prepared in step 2. Responses to ligand binding in which there is both a change in fluorescence emission intensity and spectral shape are essential for chemometric applications, because such changes enable ratiometric measurements. Changes in spectral shape typically are accompanied by a shift in the wavelength of the emission intensity maxima. Three classes of fluorescent responses are possible: • i. No response. • ii. Monochromatic response (emission intensity increases or decreases without a change in spectral shape) • iii.
Determination of temperature- and ligand-dependent fluorescence landscapes. […] Temperatures were advanced in 1K steps.
Determination of emission intensity spectra.
2 For a single glucose-binding site, the fractional saturation is given by […]

[1] = tsGBP2 cysteine scan, Badan conjugate
[2] = tsGBP2 cysteine scan, Acrylodan conjugate

Molecule | Shape (fluorescence response to glucose) [1] | Shape (fluorescence response to glucose) [2] | further results
D12C Badan: tsGBP2_C12 (SEQ ID NO: 19) Badan conjugate (conjugate, Badan conjugate; tsGBP2_C12 (12C substitution mutant with signal peptide replaced with M and a GGSHHHHHH at C-terminus)) MKLEIFSWWAGCEGPALEALIRLYKQKYPGVEVINATVTGGAGVNAKAVLKTRMLGGDPPDTFQVHAGQELIGTWVVADRMEDLTSLFRQEGWLQAFPKGLIDLLSYKGGIWSVPVNIHRSNVMWYIPAKLKEWGVTPPKTWAEFLATAQTLKRKGLEAPLALGENWTQQHLWESVALATLGADGWNNLWSGKLKFTDPKAVAVWETFGKVLDAANKDAAGLSWQQAVDRVVQGKAAFNIMGDWAAGYMSTTLKLKPGTDFAWTPSPGTSGIFMMLSDSFGLPKGAKNRQNAINWLKLVGSKEGQDTFNPLKGSIAARLDSDPAKYNAYGQSAMKDWKSNRIVGSLVHGAVAPESFMSQFGTVMEIFLQSRNPQAAANAAQAIANQVGLGRGGSHHHHHH | m | – | –
G41C Badan: tsGBP2_C41 (SEQ ID NO: 21) Badan conjugate (conjugate, Badan conjugate; tsGBP2_C41 (41C substitution mutant with signal peptide replaced with M and a GGSHHHHHH at C-terminus)) MKLEIFSWWAGDEGPALEALIRLYKQKYPGVEVINATVTGCAGVNAKAVLKTRMLGGDPPDTFQVHAGQELIGTWVVADRMEDLTSLFRQEGWLQAFPKGLIDLLSYKGGIWSVPVNIHRSNVMWYIPAKLKEWGVTPPKTWAEFLATAQTLKRKGLEAPLALGENWTQQHLWESVALATLGADGWNNLWSGKLKFTDPKAVAVWETFGKVLDAANKDAAGLSWQQAVDRVVQGKAAFNIMGDWAAGYMSTTLKLKPGTDFAWTPSPGTSGIFMMLSDSFGLPKGAKNRQNAINWLKLVGSKEGQDTFNPLKGSIAARLDSDPAKYNAYGQSAMKDWKSNRIVGSLVHGAVAPESFMSQFGTVMEIFLQSRNPQAAANAAQAIANQVGLGRGGSHHHHHH | m | – | –
A42C Badan: tsGBP2_C42 (SEQ ID NO: 22) Badan conjugate (conjugate, Badan conjugate; tsGBP2_C42 (42C substitution mutant with signal peptide replaced with M and a GGSHHHHHH at C-terminus)) MKLEIFSWWAGDEGPALEALIRLYKQKYPGVEVINATVTGGCGVNAKAVLKTRMLGGDPPDTFQVHAGQELIGTWVVADRMEDLTSLFRQEGWLQAFPKGLIDLLSYKGGIWSVPVNIHRSNVMWYIPAKLKEWGVTPPKTWAEFLATAQTLKRKGLEAPLALGENWTQQHLWESVALATLGADGWNNLWSGKLKFTDPKAVAVWETFGKVLDAANKDAAGLSWQQAVDRVVQGKAAFNIMGDWAAGYMSTTLKLKPGTDFAWTPSPGTSGIFMMLSDSFGLPKGAKNRQNAINWLKLVGSKEGQDTFNPLKGSIAARLDSDPAKYNAYGQSAMKDWKSNRIVGSLVHGAVAPESFMSQFGTVMEIFLQSRNPQAAANAAQAIANQVGLGRGGSHHHHHH | m | – | –
A42C Acrylodan: tsGBP2_C42 (SEQ ID NO: 22) Acrylodan conjugate (conjugate, Acrylodan conjugate; tsGBP2_C42 (42C substitution mutant with signal peptide replaced with M and a GGSHHHHHH at C-terminus)) MKLEIFSWWAGDEGPALEALIRLYKQKYPGVEVINATVTGGCGVNAKAVLKTRMLGGDPPDTFQVHAGQELIGTWVVADRMEDLTSLFRQEGWLQAFPKGLIDLLSYKGGIWSVPVNIHRSNVMWYIPAKLKEWGVTPPKTWAEFLATAQTLKRKGLEAPLALGENWTQQHLWESVALATLGADGWNNLWSGKLKFTDPKAVAVWETFGKVLDAANKDAAGLSWQQAVDRVVQGKAAFNIMGDWAAGYMSTTLKLKPGTDFAWTPSPGTSGIFMMLSDSFGLPKGAKNRQNAINWLKLVGSKEGQDTFNPLKGSIAARLDSDPAKYNAYGQSAMKDWKSNRIVGSLVHGAVAPESFMSQFGTVMEIFLQSRNPQAAANAAQAIANQVGLGRGGSHHHHHH | – | 0 | –
Q64C Badan: tsGBP2_C64 (SEQ ID NO: 23) Badan conjugate (conjugate, Badan conjugate; tsGBP2_C64 (64C substitution mutant with signal peptide replaced with M and a GGSHHHHHH at C-terminus)) MKLEIFSWWAGDEGPALEALIRLYKQKYPGVEVINATVTGGAGVNAKAVLKTRMLGGDPPDTFCVHAGQELIGTWVVADRMEDLTSLFRQEGWLQAFPKGLIDLLSYKGGIWSVPVNIHRSNVMWYIPAKLKEWGVTPPKTWAEFLATAQTLKRKGLEAPLALGENWTQQHLWESVALATLGADGWNNLWSGKLKFTDPKAVAVWETFGKVLDAANKDAAGLSWQQAVDRVVQGKAAFNIMGDWAAGYMSTTLKLKPGTDFAWTPSPGTSGIFMMLSDSFGLPKGAKNRQNAINWLKLVGSKEGQDTFNPLKGSIAARLDSDPAKYNAYGQSAMKDWKSNRIVGSLVHGAVAPESFMSQFGTVMEIFLQSRNPQAAANAAQAIANQVGLGRGGSHHHHHH | m | – | –
E13C Badan: tsGBP2_C13 (SEQ ID NO: 20) Badan conjugate (conjugate, Badan conjugate; tsGBP2_C13 (13C substitution mutant with signal peptide replaced with M and a GGSHHHHHH at C-terminus)) MKLEIFSWWAGDCGPALEALIRLYKQKYPGVEVINATVTGGAGVNAKAVLKTRMLGGDPPDTFQVHAGQELIGTWVVADRMEDLTSLFRQEGWLQAFPKGLIDLLSYKGGIWSVPVNIHRSNVMWYIPAKLKEWGVTPPKTWAEFLATAQTLKRKGLEAPLALGENWTQQHLWESVALATLGADGWNNLWSGKLKFTDPKAVAVWETFGKVLDAANKDAAGLSWQQAVDRVVQGKAAFNIMGDWAAGYMSTTLKLKPGTDFAWTPSPGTSGIFMMLSDSFGLPKGAKNRQNAINWLKLVGSKEGQDTFNPLKGSIAARLDSDPAKYNAYGQSAMKDWKSNRIVGSLVHGAVAPESFMSQFGTVMEIFLQSRNPQAAANAAQAIANQVGLGRGGSHHHHHH | m | – | Change (fluorescence response to glucose) (tsGBP 13C affinity mutants, Acrylodan or Badan conjugates): m/d; Shape (fluorescence response to glucose) (ttGBP1 homologs, 13C-equivalent mutants labeled with Acrylodan or Badan): m
Q64C Acrylodan: tsGBP2_C64 (SEQ ID NO: 23) Acrylodan conjugate (conjugate, Acrylodan conjugate; tsGBP2_C64 (64C substitution mutant with signal peptide replaced with M and a GGSHHHHHH at C-terminus)) MKLEIFSWWAGDEGPALEALIRLYKQKYPGVEVINATVTGGAGVNAKAVLKTRMLGGDPPDTFCVHAGQELIGTWVVADRMEDLTSLFRQEGWLQAFPKGLIDLLSYKGGIWSVPVNIHRSNVMWYIPAKLKEWGVTPPKTWAEFLATAQTLKRKGLEAPLALGENWTQQHLWESVALATLGADGWNNLWSGKLKFTDPKAVAVWETFGKVLDAANKDAAGLSWQQAVDRVVQGKAAFNIMGDWAAGYMSTTLKLKPGTDFAWTPSPGTSGIFMMLSDSFGLPKGAKNRQNAINWLKLVGSKEGQDTFNPLKGSIAARLDSDPAKYNAYGQSAMKDWKSNRIVGSLVHGAVAPESFMSQFGTVMEIFLQSRNPQAAANAAQAIANQVGLGRGGSHHHHHH | – | 0 | –
G41C Acrylodan: tsGBP2_C41 (SEQ ID NO: 21) Acrylodan conjugate (conjugate, Acrylodan conjugate; tsGBP2_C41 (41C substitution mutant with signal peptide replaced with M and a GGSHHHHHH at C-terminus)) MKLEIFSWWAGDEGPALEALIRLYKQKYPGVEVINATVTGCAGVNAKAVLKTRMLGGDPPDTFQVHAGQELIGTWVVADRMEDLTSLFRQEGWLQAFPKGLIDLLSYKGGIWSVPVNIHRSNVMWYIPAKLKEWGVTPPKTWAEFLATAQTLKRKGLEAPLALGENWTQQHLWESVALATLGADGWNNLWSGKLKFTDPKAVAVWETFGKVLDAANKDAAGLSWQQAVDRVVQGKAAFNIMGDWAAGYMSTTLKLKPGTDFAWTPSPGTSGIFMMLSDSFGLPKGAKNRQNAINWLKLVGSKEGQDTFNPLKGSIAARLDSDPAKYNAYGQSAMKDWKSNRIVGSLVHGAVAPESFMSQFGTVMEIFLQSRNPQAAANAAQAIANQVGLGRGGSHHHHHH | – | d | –
H66C Acrylodan: tsGBP2_C66 (SEQ ID NO: 24) Acrylodan conjugate (conjugate, Acrylodan conjugate; tsGBP2_C66 (66C substitution mutant with signal peptide replaced with M and a GGSHHHHHH at C-terminus)) MKLEIFSWWAGDEGPALEALIRLYKQKYPGVEVINATVTGGAGVNAKAVLKTRMLGGDPPDTFQVCAGQELIGTWVVADRMEDLTSLFRQEGWLQAFPKGLIDLLSYKGGIWSVPVNIHRSNVMWYIPAKLKEWGVTPPKTWAEFLATAQTLKRKGLEAPLALGENWTQQHLWESVALATLGADGWNNLWSGKLKFTDPKAVAVWETFGKVLDAANKDAAGLSWQQAVDRVVQGKAAFNIMGDWAAGYMSTTLKLKPGTDFAWTPSPGTSGIFMMLSDSFGLPKGAKNRQNAINWLKLVGSKEGQDTFNPLKGSIAARLDSDPAKYNAYGQSAMKDWKSNRIVGSLVHGAVAPESFMSQFGTVMEIFLQSRNPQAAANAAQAIANQVGLGRGGSHHHHHH | – | d | –

From patent publication US11402384B2 (Duke University, priority 2015, dated 2022)
